Measurements as given in paper PMC4122344, “Heterodimerization of p45–p75 Modulates p75 Signaling: Structural Basis and Mechanism of Action” (PLoS Biology, 2014).

Assays:
[1] = target: T1, p75ICD (residues 290–418) (human, UniProt P08138 290-418); test: NMR titration; TROSY spectra of 15N-labelled p75ICD at different concentrations (10, 100, 500 µM) with DTT; 25 °C, PBS pH 8.0, 100 mM NaCl; monomer to dimer; details: both partners purified
T1 chain: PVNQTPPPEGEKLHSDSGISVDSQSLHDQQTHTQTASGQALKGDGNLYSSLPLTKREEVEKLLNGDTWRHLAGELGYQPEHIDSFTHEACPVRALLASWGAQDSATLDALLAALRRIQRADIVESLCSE

[2] = target: T1, p75ICD (residues 290–418); test: SEC; S200-Superdex gel filtration, 4 °C, PBS pH 8.0, 0.7 ml/min; p75ICD purified with or without DTT (or with iodoacetamide in the lysis buffer); details: both partners purified
Flag-tagged human NgR = target: T2, Flag-tagged human NgR (human, UniProt Q9BZR6 27-447); test: co-IP; HEK293 co-transfected with wild-type or mutant p75 and Flag-tagged NgR; p75 co-immunoprecipitated with NgR; blots quantified, wild type = 100%; details: partners not purified
T2 construct: Nogo-66 receptor (NgR), human; Printed both as Flag-hNgR and as NgR-Flag; also called Flag-hNgR; NgR-Flag; source: HEK293, transfected, in lysate
T2 sequence (looked up): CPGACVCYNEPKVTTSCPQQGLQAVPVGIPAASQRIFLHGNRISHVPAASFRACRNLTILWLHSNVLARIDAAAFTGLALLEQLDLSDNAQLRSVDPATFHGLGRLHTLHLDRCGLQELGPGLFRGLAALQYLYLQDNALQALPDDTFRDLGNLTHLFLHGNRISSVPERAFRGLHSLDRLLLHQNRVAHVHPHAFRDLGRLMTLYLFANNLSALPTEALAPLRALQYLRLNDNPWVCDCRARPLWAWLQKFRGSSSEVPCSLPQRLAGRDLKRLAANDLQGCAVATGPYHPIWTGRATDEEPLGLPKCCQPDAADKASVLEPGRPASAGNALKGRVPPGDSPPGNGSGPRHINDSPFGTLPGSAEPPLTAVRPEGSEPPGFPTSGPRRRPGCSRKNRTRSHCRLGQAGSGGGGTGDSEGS

B1: p75ICD (residues 290–418) (domain or fragment)
chain: PVNQTPPPEGEKLHSDSGISVDSQSLHDQQTHTQTASGQALKGDGNLYSSLPLTKREEVEKLLNGDTWRHLAGELGYQPEHIDSFTHEACPVRALLASWGAQDSATLDALLAALRRIQRADIVESLCSE
modifications: Methods print 'human p75ICD', but all residue numbers (L360, E363, Q367, D372, H376, E377, C379, W388, R404) and the mapped structure 1NGR fit the rat precursor; human P08138 is offset by +2 in this …
For B1, the Kd [1] was about 100 µM and the “stoichiometry N” value [2] was 2.

B2: p75 D372R (full-length) (receptor, UniProt P07174 30-425, looked up)
chain: KETCSTGLYTHSGECCKACNLGEGVAQPCGANQTVCEPCLDNVTFSDVVSATEPCKPCTECLGLQSMSAPCVEADDAVCRCAYGYYQDEETGHCEACSVCEVGSGLVFSCQDKQNTVCEECPEGTYSDEANHVDPCLPCTVCEDTERQLRECTPWADAECEEIPGRWIPRSTPPEGSDSTAPSTQEPEVPPEQDLVPSTVADMVTTVMGSSQPVVTRGTTDNLIPVYCSILAAVVVGLVAYIAFKRWNSCKQNKQGANSRPVNQTPPPEGEKLHSDSGISVDSQSLHDQQTHTQTASGQALKGDGNLYSSLPLTKREEVEKLLNGDTWRHLAGELGYQPEHIRSFTHEACPVRALLASWGAQDSATLDALLAALRRIQRADIVESLCSESTATSPV
notes: p75 neurotrophin receptor; source: HEK293, transfected, in lysate
B2 was tested, and the “percent co-immunoprecipitated with NgR (WT, 100%)” value (Flag-tagged human NgR) was 61.8%.

B3: p75 E377R (full-length) (receptor, UniProt P07174 30-425, looked up)
chain: KETCSTGLYTHSGECCKACNLGEGVAQPCGANQTVCEPCLDNVTFSDVVSATEPCKPCTECLGLQSMSAPCVEADDAVCRCAYGYYQDEETGHCEACSVCEVGSGLVFSCQDKQNTVCEECPEGTYSDEANHVDPCLPCTVCEDTERQLRECTPWADAECEEIPGRWIPRSTPPEGSDSTAPSTQEPEVPPEQDLVPSTVADMVTTVMGSSQPVVTRGTTDNLIPVYCSILAAVVVGLVAYIAFKRWNSCKQNKQGANSRPVNQTPPPEGEKLHSDSGISVDSQSLHDQQTHTQTASGQALKGDGNLYSSLPLTKREEVEKLLNGDTWRHLAGELGYQPEHIDSFTHRACPVRALLASWGAQDSATLDALLAALRRIQRADIVESLCSESTATSPV
notes: as for B2
In the case of B3, the “percent co-immunoprecipitated with NgR (WT, 100%)” value (Flag-tagged human NgR) is reported as 27.4%.

B4: p75 H376E (full-length) (receptor, UniProt P07174 30-425, looked up)
chain: KETCSTGLYTHSGECCKACNLGEGVAQPCGANQTVCEPCLDNVTFSDVVSATEPCKPCTECLGLQSMSAPCVEADDAVCRCAYGYYQDEETGHCEACSVCEVGSGLVFSCQDKQNTVCEECPEGTYSDEANHVDPCLPCTVCEDTERQLRECTPWADAECEEIPGRWIPRSTPPEGSDSTAPSTQEPEVPPEQDLVPSTVADMVTTVMGSSQPVVTRGTTDNLIPVYCSILAAVVVGLVAYIAFKRWNSCKQNKQGANSRPVNQTPPPEGEKLHSDSGISVDSQSLHDQQTHTQTASGQALKGDGNLYSSLPLTKREEVEKLLNGDTWRHLAGELGYQPEHIDSFTEEACPVRALLASWGAQDSATLDALLAALRRIQRADIVESLCSESTATSPV
notes: as for B2
In the case of B4, the “percent co-immunoprecipitated with NgR (WT, 100%)” value (Flag-tagged human NgR) is reported as 125%.

B5: p75-C257A (full-length) (receptor, UniProt P07174 30-425, looked up)
chain: KETCSTGLYTHSGECCKACNLGEGVAQPCGANQTVCEPCLDNVTFSDVVSATEPCKPCTECLGLQSMSAPCVEADDAVCRCAYGYYQDEETGHCEACSVCEVGSGLVFSCQDKQNTVCEECPEGTYSDEANHVDPCLPCTVCEDTERQLRECTPWADAECEEIPGRWIPRSTPPEGSDSTAPSTQEPEVPPEQDLVPSTVADMVTTVMGSSQPVVTRGTTDNLIPVYASILAAVVVGLVAYIAFKRWNSCKQNKQGANSRPVNQTPPPEGEKLHSDSGISVDSQSLHDQQTHTQTASGQALKGDGNLYSSLPLTKREEVEKLLNGDTWRHLAGELGYQPEHIDSFTHEACPVRALLASWGAQDSATLDALLAALRRIQRADIVESLCSESTATSPV
notes: p75 neurotrophin receptor; also called p75 TM domain mutant; source: HEK293, transfected, in lysate
With B5 the “percent co-immunoprecipitated with NgR (WT, 100%)” value (Flag-tagged human NgR) was 17.7%.
